The target in experiment [1] is human NCAM Ig1-5/FN1-2 Fc fusion protein (full-length NCAM-EC) (human) (UniProt P13591). As to the kind of experiment: pull-down; 1 ug of neurocan (human or mouse) incubated with 1 ug of Fc protein in TBS for 1 hr at 37 C; Fc proteins pulled down with Protein A/G Sepharose beads; immunoblot, densitometry. Background: Immunoblotting shows a protein as a band on a membrane.

Experiment [2] addresses human NCAM Ig1 Fc fusion protein (human). Described as above.
In experiment [3] the target is human NCAM Ig1-2 Fc fusion protein (human). The experiment is described as above.
The target in experiment [4] is human NCAM Ig1-3 Fc fusion protein (human). The experiment is described as above.
Experiment [5] addresses human NCAM Ig2 Fc fusion protein (human). The description is as above.
Experiment [6] addresses NCAM K162D mutant expressed in HEK293T cells (UniProt P13591). Briefly: co-IP; lysates (1 mg, RIPA buffer) of HEK293T cells transfected with NCAM140, NCAM mutants or EphA3, incubated with recombinant neurocan; precipitated with antibodies against NCAM (H-300) or EphA3 (C-19) and Protein A/G agarose; immunoblot for neurocan, densitometry.
Experiment [7] deals with NCAM R156E mutant expressed in HEK293T cells (UniProt P13591). Described as above.

“recombinant mouse neurocan Glu23-637 (a truncation lacking the sushi domain) (from UniProt P55066 23-637) (domain or fragment)” came in with a neurocan bound to NCAM-EC-Fc, percent of the human neurocan level in experiment [1] of 93%.

As to “recombinant human neurocan (full-length protein) (from UniProt O14594 23-1321) (natural protein)”, the neurocan bound, percent of the amount bound to NCAM-EC-Fc is 23% in experiment [2], 33% in experiment [3], 50% in experiment [4] and 129% in experiment [5]. Also, the neurocan co-immunoprecipitated, percent of WT NCAM was 41 % of WT in experiment [6] and 32 % of WT in experiment [7].

(Values after publication PMC5906663.)
